In patent US9314499:

Molecular target: tissue plasminogen activator (human) (UniProt P00750)
Experiment: cell-based or functional assay

Chain of UniProt P00750 (P00750 36-562 limits assumed): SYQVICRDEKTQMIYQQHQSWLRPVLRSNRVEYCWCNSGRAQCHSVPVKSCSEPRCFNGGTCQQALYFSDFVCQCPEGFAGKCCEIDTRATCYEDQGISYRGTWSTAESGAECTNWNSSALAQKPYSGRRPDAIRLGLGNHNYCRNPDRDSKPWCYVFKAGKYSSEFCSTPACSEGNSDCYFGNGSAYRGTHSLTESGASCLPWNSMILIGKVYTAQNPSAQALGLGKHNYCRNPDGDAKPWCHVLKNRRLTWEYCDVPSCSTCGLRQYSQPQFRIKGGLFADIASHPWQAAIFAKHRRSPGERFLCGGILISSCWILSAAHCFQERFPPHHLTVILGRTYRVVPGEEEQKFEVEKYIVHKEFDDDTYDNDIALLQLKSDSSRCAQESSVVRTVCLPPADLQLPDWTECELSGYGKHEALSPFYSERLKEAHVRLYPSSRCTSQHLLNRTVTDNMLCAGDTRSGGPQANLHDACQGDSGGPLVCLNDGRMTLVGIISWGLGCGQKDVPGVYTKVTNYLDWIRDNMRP

Histidine-tagged recombinant human Annexin A2 (from UniProt Q3ZCQ2 1-193)
in vitro plasmin-generating capability of tPA (plasmin activity assay): 4 fold
